Target: the molecule itself
Test: crystal structure; Ca2+-bound state: protein purified with 1 mM CaCl2 in 50 mM Tris-HCl pH 8.0, 250 mM NaCl; crystals in 21% PEG 550 MME, 50 mM MgAc2, 100 mM Tris pH 8.2, 20 °C; space group I4, one subunit per asymmetric unit, tetramer by crystallographic fourfold; 1.6 Å

B1: LjCASTOR soluble domain (residues 312-853) (domain or fragment, Lotus japonicus, UniProt Q5H8A6 312-853, looked up)
chain: KGKSEVVEQNHTLILGWSDKLGSLLNQLAIANESLGGGTIAVMAERDKEDMELDIGKMEFDFKGTSVICRSGSPLILADLKKVSVSKARTIIVLAEDGNADQSDARALRTVLSLTGVKEGLRGHIVVEMSDLDNEVLVKLVGGDLVETVVAHDVIGRLMIQCARQPGLAQIWEDILGFENCEFYIKRWPQLDGMLFEDVLISFPAAIPCGIKVASYGGKIILNPDDSYVLQEGDEVLVIAEDDDTYAPAPLPMVRRGSLPKDFVYPKSPERILFCGWRRDMEDMITVLDASLAPDSELWMFNDVPEKEREKKLIDGGLDISRLENISLVNREGNAVIRRHLESLPLESFDSILILADESVEDSAIQADSRSLATLLLIRDIQARRLPYVAMASQTQGGNFSKGSWIGEMKQASDKTVIISEILDPRTKNLLSMSKISDYVLSNELVSMALAMVAEDRQINDVLEELFAEEGNEMHIRQADIYLREGEEMSFYEIMLRARQRREILIGYRLANAERAVINPPAKTGRRKWSLKDVFVVITEKE
notes: CASTOR ion channel from Lotus japonicus, soluble domain after the transmembrane region, residues 312-853; two tandem RCK domains (RCK1 320-552, linker 553-580, RCK2 581-853); Cloned into pQE60 with a C-terminal hexahistidine tag; no removal of the tag is described; A selenomethionine-substituted form was used for phasing only; Residues 699-726 have no electron density; also called LjCASTOR RCK …
stoichiometry N: 4

From article PMC6697748, “Ca^2+-regulated Ca^2+ channels with an RCK gating ring control plant symbiotic associations” (Nature Communications, 2019)
